Earlier results as cited in publication PMC5896957.

Target: exon junction complex (Homo sapiens) (UniProt P38919)
UniProt P38919, sequence (P38919 2-411, chain 1 of 3): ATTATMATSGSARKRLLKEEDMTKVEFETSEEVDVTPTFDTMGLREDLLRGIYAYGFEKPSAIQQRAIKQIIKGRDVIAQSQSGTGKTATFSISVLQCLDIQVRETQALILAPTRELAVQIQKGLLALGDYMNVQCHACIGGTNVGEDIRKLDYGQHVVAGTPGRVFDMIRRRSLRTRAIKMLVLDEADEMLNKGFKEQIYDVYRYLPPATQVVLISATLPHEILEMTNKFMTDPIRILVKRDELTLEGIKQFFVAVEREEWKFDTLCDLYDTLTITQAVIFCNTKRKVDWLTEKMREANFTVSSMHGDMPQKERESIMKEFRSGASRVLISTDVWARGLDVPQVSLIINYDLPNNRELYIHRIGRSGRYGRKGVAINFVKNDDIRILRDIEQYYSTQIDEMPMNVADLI
UniProt P38919, sequence (B1ARP8 whole entry, chain 2 of 3, further chain): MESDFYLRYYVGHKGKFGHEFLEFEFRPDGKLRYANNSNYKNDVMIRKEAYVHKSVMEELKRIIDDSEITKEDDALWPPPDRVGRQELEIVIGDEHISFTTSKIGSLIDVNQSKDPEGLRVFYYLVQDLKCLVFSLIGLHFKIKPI
UniProt P38919, sequence (O15234 whole entry, chain 3 of 3, further chain): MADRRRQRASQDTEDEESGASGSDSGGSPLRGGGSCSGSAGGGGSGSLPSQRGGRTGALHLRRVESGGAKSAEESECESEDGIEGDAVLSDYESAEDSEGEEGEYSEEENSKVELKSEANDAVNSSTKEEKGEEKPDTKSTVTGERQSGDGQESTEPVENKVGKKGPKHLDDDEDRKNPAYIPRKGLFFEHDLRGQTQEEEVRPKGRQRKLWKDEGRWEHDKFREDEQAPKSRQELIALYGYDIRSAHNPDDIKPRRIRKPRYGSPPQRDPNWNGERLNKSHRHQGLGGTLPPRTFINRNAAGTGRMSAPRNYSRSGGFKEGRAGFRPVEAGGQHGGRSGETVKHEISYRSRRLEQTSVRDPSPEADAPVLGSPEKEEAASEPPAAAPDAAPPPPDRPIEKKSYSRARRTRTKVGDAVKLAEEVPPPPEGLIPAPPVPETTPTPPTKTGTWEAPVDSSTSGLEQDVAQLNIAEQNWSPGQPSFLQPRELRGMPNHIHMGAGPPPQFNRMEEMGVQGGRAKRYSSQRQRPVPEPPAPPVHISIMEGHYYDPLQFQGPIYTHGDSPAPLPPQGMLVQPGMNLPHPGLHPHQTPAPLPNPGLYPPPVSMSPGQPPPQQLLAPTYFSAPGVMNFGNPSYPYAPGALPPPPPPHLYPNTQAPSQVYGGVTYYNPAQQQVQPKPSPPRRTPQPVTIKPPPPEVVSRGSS

Kd: 10 µM
Substance: UPF3B peptide (from UniProt Q9BZI7)
